Assay results: patent publication US7326418B2, “Identification of novel factors that block programmed cell death or apoptosis by targeting JNK” (University of Chicago, priority 2001, dated 2008)

Target: T1, ASK1 (Homo sapiens, UniProt Q99683)
T1 sequence (Q99683 1-1374): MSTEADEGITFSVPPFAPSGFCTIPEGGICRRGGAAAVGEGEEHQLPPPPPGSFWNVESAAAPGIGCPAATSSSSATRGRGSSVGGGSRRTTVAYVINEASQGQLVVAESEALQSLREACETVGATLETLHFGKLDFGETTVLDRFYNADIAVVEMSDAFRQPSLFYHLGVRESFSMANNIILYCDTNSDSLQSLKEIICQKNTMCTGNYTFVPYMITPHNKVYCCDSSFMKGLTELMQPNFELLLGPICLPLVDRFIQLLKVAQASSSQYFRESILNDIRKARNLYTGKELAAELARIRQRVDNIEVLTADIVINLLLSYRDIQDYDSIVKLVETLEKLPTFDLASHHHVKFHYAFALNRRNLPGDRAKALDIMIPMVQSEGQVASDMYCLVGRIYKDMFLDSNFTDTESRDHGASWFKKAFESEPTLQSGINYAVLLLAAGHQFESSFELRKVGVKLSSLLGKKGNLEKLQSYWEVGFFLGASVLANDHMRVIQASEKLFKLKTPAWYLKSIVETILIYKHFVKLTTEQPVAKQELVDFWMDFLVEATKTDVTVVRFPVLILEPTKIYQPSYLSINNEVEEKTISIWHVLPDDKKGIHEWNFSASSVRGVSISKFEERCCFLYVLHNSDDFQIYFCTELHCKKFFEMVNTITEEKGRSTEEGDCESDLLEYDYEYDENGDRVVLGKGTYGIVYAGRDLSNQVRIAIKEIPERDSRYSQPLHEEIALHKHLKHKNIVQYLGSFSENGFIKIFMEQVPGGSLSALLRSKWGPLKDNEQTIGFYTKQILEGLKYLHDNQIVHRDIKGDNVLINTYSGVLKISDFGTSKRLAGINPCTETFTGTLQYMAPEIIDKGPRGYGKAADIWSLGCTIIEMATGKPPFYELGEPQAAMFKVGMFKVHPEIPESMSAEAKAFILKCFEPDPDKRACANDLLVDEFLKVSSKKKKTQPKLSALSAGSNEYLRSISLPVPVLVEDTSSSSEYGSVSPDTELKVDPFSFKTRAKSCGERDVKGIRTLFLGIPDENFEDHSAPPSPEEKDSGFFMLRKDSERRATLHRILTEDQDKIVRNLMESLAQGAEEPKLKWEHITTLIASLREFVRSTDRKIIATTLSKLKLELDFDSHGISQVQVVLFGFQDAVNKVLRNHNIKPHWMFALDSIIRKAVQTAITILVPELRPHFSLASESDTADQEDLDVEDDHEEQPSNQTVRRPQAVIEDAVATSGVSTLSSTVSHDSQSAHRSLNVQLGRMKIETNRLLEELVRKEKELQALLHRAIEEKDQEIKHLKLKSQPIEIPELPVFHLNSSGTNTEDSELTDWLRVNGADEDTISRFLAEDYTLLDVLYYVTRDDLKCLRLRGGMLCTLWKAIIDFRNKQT
Test: GST pull-down, GST-Gadd45β beads with in vitro translated 35S-labeled ASK1
Type: binding
Set-up: plasmids encoding full-length (FL) human ASK1, MEKK4, JNKK1, and JNKK2; made in house; host or cells: TNT coupled reticulocyte lysate (Promega), in vitro transcription/translation from pBS
Method: To confirm the above interactions, in vitro, GST pull-down experiments were performed. pBluescript (pBS) plasmids encoding full-length (FL) human ASK1, MEKK4, JNKK1, and JNKK2, or polypeptides derived from the amino- or carboxy-terminal portions of ASK1 (i.e. N-ASK1, spanning from amino acids 1 to 756, and C-ASK1, spanning from amino acids 648 to 1375) were transcribed and translated in vitro using the TNT coupled retyculocyte lysate system (Promega) in the presence of ^35S-methionine. 5 μl of each translation mix were incubated, in vitro, with sepharose-4B beads that had been coated with either purified glutathione-S-transferase (GST) polypeptides or GST-Gadd45β proteins. The latter proteins contained FL murine Gadd45β directly fused to GST. Binding assays were performed according to standard procedures, and ^35S-labeled proteins that bound to beads, as well as 2 μl of each in vitro translation mix (input), were then resolved by SDS polyacrylamide gel electrophoresis. Asterisks indicate the intact translated products. […] Thus, GST pull-down experiments confirmed the strong interaction between Gadd45β and JNKK2 observed in vivo, as well as the weaker interactions of Gadd45β with other kinases in the JNK pathway. These assays also uncovered a weak association between Gadd45β and JNKK1. […]

association with ASK1: less avidly than with JNKK2
B1: GST-Gadd45β: full-length murine Gadd45β directly fused to GST, purified from E. coli (protein)
chain: MTLEELVASDNAVQKMQAVTAAVEQLLVAAQRQDRLTVGVYEAAKLMNVDPDSVVLCLLAIDEEEEDDIALQIHFTLIQSFCCDNDIDIVRVSGMQRLAQLLGEPAETLGTTEARDLHCLLVTNCHTDSWKSQGLVEVASYCEESRGNNQWVPYISLEER
modifications: left off: a dimerising Fc or GST
notes: full-length murine Gadd45β directly fused to GST, purified from E. coli
